Results reported in patent US7351690B2, “Knockout identification of target-specific sites in peptides” (priority 2000, dated 2008).
Square brackets hold non-standard residues; d marks the D form. Ends that are not written are not given here. Nle = CCCC[C@H](N)C(=O)O

What was measured:
hMC3-R = target: T1, hMC3-R (Homo sapiens, UniProt P41968); test: competitive inhibition binding assay, 125I-NDP-alpha-MSH, hMC3-R membranes; details: 1 μM test peptide; 0.4 nM 125I-NDP-alpha-MSH; hMC3-R membranes
T1 construct: expressed in transfected cells
Description: (§1) The competitive inhibition binding assay was conducted using membranes prepared from hMC3-R, hMC4-R, hMC5-R, and B-16 mouse melanoma cells (containing MC1-R) using 0.4 nM ^125I-NDP-alpha-MSH (New England Nuclear, Boston, Mass., USA) in 50 mM HEPES buffer containing 1 mM MgCl2, 2 mM CaCl2, and 5 mM KCl, at pH 7.2. The assay tube also contained a chosen concentration of the test peptide of this invention complexed to a rhenium metal ion, typically at a 1 μM concentration, for determining its efficacy in inhibiting the binding of ^125I-NDP-alpha-MSH to its receptor. Non-specific binding was measured by complete inhibition of binding of ^125I-NDP-alpha-MSH in the assay with the presence of 1 μM alpha-MSH. Incubation was for 90 minutes at room temperature, after which the assay mixture was filtered and the membranes washed three times with ice cold buffer. The filter was dried and counted in a gamma counter for remaining radioactivity bound to the membranes. 100% specific binding was defined as the difference in radioactivity (cpm) bound to cell membranes in the absence and presence of 1 μM alpha-MSH. The cpm obtained in presence of test compounds were normalized with respect to 100% specific binding to determine the percent inhibition of ^125I-NDP-alpha MSH binding. Each assay was conducted in triplicate and the actual mean valves are described.

hMC5-R = target: T2, hMC5-R (Homo sapiens, UniProt P33032); test: competitive inhibition binding assay, 125I-NDP-alpha-MSH, hMC5-R membranes; details: 1 μM test peptide; 0.4 nM 125I-NDP-alpha-MSH; hMC5-R membranes
T2 construct: expressed in transfected cells
Description: as §1

hMC4-R = target: T3, hMC4-R (Homo sapiens, UniProt P32245); test: competitive inhibition binding assay, 125I-NDP-alpha-MSH, hMC4-R membranes; details: 1 μM test peptide; 0.4 nM 125I-NDP-alpha-MSH; hMC4-R membranes
T3 construct: expressed in transfected cells
Description: as §1

MC1-R = target: T4, MC1-R (Mus musculus, UniProt Q01727); test: competitive inhibition binding assay, 125I-NDP-alpha-MSH, B-16 mouse melanoma cell membranes; details: 1 μM test peptide; 0.4 nM 125I-NDP-alpha-MSH; B-16 mouse melanoma cell membranes
T4 construct: membranes prepared from hMC3-R, hMC4-R, hMC5-R, and B-16 mouse melanoma cells (containing MC1-R); endogenous in cells; host or cells: B-16 mouse melanoma cells (membranes)
Description: as §1

T4 sequence (Q01727 whole entry): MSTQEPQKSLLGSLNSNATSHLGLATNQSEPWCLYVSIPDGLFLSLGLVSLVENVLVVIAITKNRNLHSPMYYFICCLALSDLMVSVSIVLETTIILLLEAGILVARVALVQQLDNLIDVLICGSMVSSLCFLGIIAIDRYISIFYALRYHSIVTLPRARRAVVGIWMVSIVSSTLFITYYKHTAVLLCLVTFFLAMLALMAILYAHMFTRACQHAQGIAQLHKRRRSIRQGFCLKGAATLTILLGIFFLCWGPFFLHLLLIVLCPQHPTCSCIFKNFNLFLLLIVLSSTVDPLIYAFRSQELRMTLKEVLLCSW
T2 sequence (P33032 whole entry): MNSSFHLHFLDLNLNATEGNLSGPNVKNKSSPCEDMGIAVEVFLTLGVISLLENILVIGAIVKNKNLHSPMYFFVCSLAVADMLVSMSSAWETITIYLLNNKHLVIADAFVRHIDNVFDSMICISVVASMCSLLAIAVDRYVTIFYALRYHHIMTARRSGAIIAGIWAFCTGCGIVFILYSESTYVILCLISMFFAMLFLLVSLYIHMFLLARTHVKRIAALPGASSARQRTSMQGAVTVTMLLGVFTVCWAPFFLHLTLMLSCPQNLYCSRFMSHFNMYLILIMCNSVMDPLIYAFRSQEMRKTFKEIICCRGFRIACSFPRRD
T1 sequence (P41968 whole entry): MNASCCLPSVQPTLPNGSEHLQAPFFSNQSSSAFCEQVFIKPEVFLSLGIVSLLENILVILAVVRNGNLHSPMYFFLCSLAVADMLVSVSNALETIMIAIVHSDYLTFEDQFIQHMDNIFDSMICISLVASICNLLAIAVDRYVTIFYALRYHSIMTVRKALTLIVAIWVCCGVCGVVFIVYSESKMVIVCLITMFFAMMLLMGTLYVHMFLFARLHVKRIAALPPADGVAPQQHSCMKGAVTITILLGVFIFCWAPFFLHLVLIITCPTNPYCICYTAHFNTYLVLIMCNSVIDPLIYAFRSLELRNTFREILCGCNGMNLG
T3 sequence (P32245 whole entry): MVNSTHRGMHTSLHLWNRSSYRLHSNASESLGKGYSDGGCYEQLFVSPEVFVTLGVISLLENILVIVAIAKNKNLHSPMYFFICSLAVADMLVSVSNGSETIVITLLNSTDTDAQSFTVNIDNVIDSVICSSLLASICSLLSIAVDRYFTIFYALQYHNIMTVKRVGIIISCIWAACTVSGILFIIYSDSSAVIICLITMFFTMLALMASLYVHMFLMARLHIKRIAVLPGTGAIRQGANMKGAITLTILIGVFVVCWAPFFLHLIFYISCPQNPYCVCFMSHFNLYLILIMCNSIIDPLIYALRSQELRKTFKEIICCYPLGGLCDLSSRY

| Substance | % Inhibition at 1 μM at Melanocortin Receptor 3 (hMC3-R) [%] | % Inhibition at 1 μM at Melanocortin Receptor 5 (hMC5-R) [%] | % Inhibition at 1 μM at Melanocortin Receptor 4 (hMC4-R) [%] | % Inhibition at 1 μM at Melanocortin Receptor 1 (MC1-R) [%] |
| --- | --- | --- | --- | --- |
| Ac-Ser-Tyr-Ser-Nle-Glu-His-Phe-Arg-Trp-Gly-Lys-Gly-Val-Cys-NH2 (Ac-SYS[Nle]EHFRWGKGVC-NH2; not fully specified (bridges); printed as Ac-Ser-Tyr-Ser-Nle-Glu-His-Phe-Arg-Trp-Gly-Lys-Gly-Val-Cys-NH2; numbers in words are those of the source; also: oxorhenium(V) N3S1 chelate (Re(V)=O)) [1-1] | 48 | 68 | 63 | 95 |
| Ac-Ser-Tyr-Ser-Nle-Glu-His-Phe-Arg-Trp-Cys-Gly-Lys-Pro-Val-NH2 (Ac-SYS[Nle]EHFRWCGKPV-NH2; not fully specified (bridges); printed as Ac-Ser-Tyr-Ser-Nle-Glu-His-Phe-Arg-Trp-Cys-Gly-Lys-Pro-Val-NH2; numbers in words are those of the source; also: oxorhenium(V) N3S1 chelate (Re(V)=O)) [1-5] | 0 | 0 | 0 | 57 |
| Ac-Ser-Tyr-Ser-Nle-Glu-His-Phe-Arg-Trp-Gly-Lys-Gly-Cys-Val-NH2 (Ac-SYS[Nle]EHFRWGKGCV-NH2; not fully specified (bridges); printed as Ac-Ser-Tyr-Ser-Nle-Glu-His-Phe-Arg-Trp-Gly-Lys-Gly-Cys-Val-NH2; numbers in words are those of the source; also: oxorhenium(V) N3S1 chelate (Re(V)=O)) [1-2] | 6 | 37 | 0 | 87 |
| Tyr-Val-Cys-Nle-Gly-His-D-Phe-Arg-Trp-Asp-Arg-Phe-NH2 (YVC[Nle]GH[dF]RWDRF-NH2; also: Re complex) [3-11] | 85 | 92 | 82 | 95 |
| Ac-Ser-Tyr-Ser-Nle-Glu-His-Phe-Arg-Trp-Gly-Lys-Gly-D-Cys-Val-NH2 (Ac-SYS[Nle]EHFRWGKG[dC]V-NH2; not fully specified (bridges); printed as Ac-Ser-Tyr-Ser-Nle-Glu-His-Phe-Arg-Trp-Gly-Lys-Gly-D-Cys-Val-NH2; numbers in words are those of the source; also: oxorhenium(V) N3S1 chelate (Re(V)=O)) [2-2] | 26 | 32 | 28 | 93 |
| Tyr-Val-Nle-Gly-His-Phe-Arg-Trp-Asp-Arg-Cys-Phe-NH2 (YV[Nle]GHFRWDRCF-NH2; numbers in words are those of the source; also: oxorhenium(V) N3S1 chelate (Re=O) with Cys) [4-2] | 49 | 51 | 23 | 75 |
| Ac-Ser-Tyr-Ser-Nle-Glu-His-Phe-Arg-Trp-Gly-Lys-Gly-Val-D-Cys-NH2 (EHFRWGKGV; not fully specified; Ac-Ser-Tyr-Ser-Nle N-term; D-Cys; amide; printed: Glu-His-Phe-Arg-Trp-Gly-Lys-Gly-Val-) [2-1] | 72 | 53 | 46 | 97 |
| Tyr-Val-Nle-Gly-His-D-Phe-Arg-Cys-Trp-Asp-Arg-Phe-NH2 (YV[Nle]GH[dF]RCWDRF-NH2; also: Re complex) [3-5] | 45 | 81 | 33 | 83 |
| Tyr-Val-Nle-Gly-His-D-Phe-Arg-Trp-Asp-Arg-Cys-NH2 (YV[Nle]GH[dF]RWDRC-NH2; numbers in words are those of the source; also: oxorhenium(V) N3S1 chelate complex (Re=O)) [5-1] | 92 | 98 | 95 | 101 |
| Tyr-Val-Nle-Cys-His-D-Phe-Arg-Trp-Asp-Arg-Phe-NH2 (YV[Nle]CH[dF]RWDRF-NH2; not fully specified (bridges); printed as Tyr-Val-Nle-Cys-His-D-Phe-Arg-Trp-Asp-Arg-Phe-NH2; numbers in words are those of the source; also: oxorhenium(V) N3S1 chelate complex (Re=O)) [5-8] | 89 | 98 | 86 | 95 |
| Ac-Ser-Tyr-Ser-Nle-Glu-His-D-Cys-Phe-Arg-Trp-Gly-Lys-Pro-Val-NH2 (CFRWGKPV; Ac-Ser-Tyr-Ser-Nle-Glu-His N-term; D-residue; amide; printed: Cys-Phe-Arg-Trp-Gly-Lys-Pro-Val-) [2-8] | 0 | 29 | 25 | 69 |
| Tyr-Val-Nle-Gly-Cys-His-D-Phe-Arg-Trp-Asp-Arg-Phe-NH2 (YV[Nle]GCH[dF]RWDRF-NH2; not fully specified (bridges); printed as Tyr-Val-Nle-Gly-Cys-His-D-Phe-Arg-Trp-Asp-Arg-Phe-NH2; numbers in words are those of the source; also: oxorhenium(V) N3S1 chelate complex (Re=O)) [3-9] | 69 | 67 | 55 | 77 |
| Tyr-Val-Nle-Gly-Cys-His-Phe-Arg-Trp-Asp-Arg-Phe-NH2 (YV[Nle]GCHFRWDRF-NH2; not fully specified (bridges); printed as Tyr-Val-Nle-Gly-Cys-His-Phe-Arg-Trp-Asp-Arg-Phe-NH2; numbers in words are those of the source; also: oxorhenium(V) N3S1 chelate (Re=O) with Cys) [4-8] | 33 | 45 | −1 | 13 |
| Ac-Ser-Tyr-Ser-Nle-Glu-His-Phe-Arg-Trp-D-Cys-Gly-Lys-Pro-Val-NH2 (chain 1 Ac-SYS[Nle]EHFRW; chain 2 [dC]GKPV-NH2; not fully specified (bridges); numbers in words are those of the source; also: oxorhenium(V) N3S1 chelate (Re(V)=O)) [2-5] | 0 | 0 | 4 | 43 |
